Data reported in patent US7708999B2, “Remedies for arthritis” (Kyowa Hakko Kirin Co., Ltd., priority 2001, dated 2010).
Changes are numbered by the printed parent chain.

T1: FGF-8 (Homo sapiens, UniProt P55075)
T1 construct: purchased R & D
T1 sequence (P55075 23-215 isoform P55075-3 limits assumed): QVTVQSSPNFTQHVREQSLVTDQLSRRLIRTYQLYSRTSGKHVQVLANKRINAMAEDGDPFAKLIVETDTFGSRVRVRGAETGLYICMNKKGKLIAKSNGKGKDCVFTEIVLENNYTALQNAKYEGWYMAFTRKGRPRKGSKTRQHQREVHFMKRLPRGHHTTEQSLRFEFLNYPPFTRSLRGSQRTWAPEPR

T2: compound 1 as a partial peptide of FGF-8 (Homo sapiens, UniProt P55075)
T2 construct: 17; made in house; host or cells: chemical synthesis
T2 sequence (P55075 with tags, fused parts or gaps isoform P55075-3 limits assumed): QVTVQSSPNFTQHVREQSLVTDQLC

B1: HV0LV3-1/CHO: CHO/DG44 cell-derived anti-FGF-8 neutralizing CDR-grafted antibody, VH HV.0, VL LV.3-1 (SEQ ID NO. 44) (antibody, V domains shown)
VH: QVQLVQSGAEVKKPGASVKVSCKASGYTFTDYYLNWVRQAPGQGLEWMGEIDPGSDSIYYNENLEGRVTITADTSTSTAYMELSSLRSEDTAVYYCARYGYSRYDVRFVYWGQGTLVTVSS
VL: DVVMTQSPLSLPVTPGEPASISCRSSQSLVHSNGRTYLEWYLQKPGQSPQVLIYKVSNRISGVPDRFSGSGSGTDFTLKISRVEAEDVGVYFCFQGSHVPYTFGQGTKVEIK
B2: HV0LV4-1/CHO: CHO/DG44 cell-derived anti-FGF-8 neutralizing CDR-grafted antibody, VH HV.0, VL LV.4-1 (SEQ ID NO. 42) (antibody, V domains shown)
VH: B1 VH
VL: B1 VL with Q50K
B3: HV0LV2-1/CHO: CHO/DG44 cell-derived anti-FGF-8 neutralizing CDR-grafted antibody, VH HV.0, VL LV.2-1 (SEQ ID NO. 46) (antibody, V domains shown)
VH: B1 VH
VL: B1 VL with V2I
B4: HV0LV4-3/CHO: CHO/DG44 cell-derived anti-FGF-8 neutralizing CDR-grafted antibody, VH HV.0, VL LV.4-3 (SEQ ID NO. 50) (antibody, V domains shown)
VH: B1 VH
VL: B1 VL with V2I, T14S, P15L
B5: HV0LV3-3/CHO: CHO/DG44 cell-derived anti-FGF-8 neutralizing CDR-grafted antibody, VH HV.0, VL LV.3-3 (SEQ ID NO. 51) (antibody, V domains shown)
VH: B1 VH
VL: B1 VL with V2I, T14S, P15L, F92Y
B6: KM3334: anti-FGF-8 neutralizing human chimeric antibody, VH SEQ ID NO. 5, VL SEQ ID NO. 6, human γ1/κ, YB2/0 cell-derived (antibody, listed as Mus musculus, V domains shown)
VH: QVQLQQSGAEVARPGASVKLSCKASGYTFTDYYLNWVKQRSGQGLEWIGEIDPGSDSIYYNENLEGRATLTADKSSSTAYMQLNSLTSEDSAVYFCARYGYSRYDVRFVYWGQGTLVTVST
VL: B1 VL with V3L, S7T, T14S, P15L, E17D, P18Q, Q50K, V88L, Q105G, V109L
B7: HV0LV6: YB2/0 cell-derived anti-FGF-8 neutralizing CDR-grafted antibody, VH HV.0 (SEQ ID NO. 18), VL LV.6 (SEQ ID NO. 21) (antibody, V domains shown)
VH: B1 VH
VL: B1 VL with T14S, P15L, Q50K
modifications: HV.0, a designed amino acid sequence of VH of an anti-FGF-8 CDR-grafted neutralizing antibody; LV.6, a designed amino acid sequence of VL of an anti-FGF-8 CDR-grafted neutralizing antibody
B8: HV0LV0: YB2/0 cell-derived anti-FGF-8 neutralizing CDR-grafted antibody, VH HV.0 (SEQ ID NO. 18), VL LV.0 (SEQ ID NO. 19) (antibody, V domains shown)
VH: B1 VH
VL: B1 VL with V2I, V51L, F92Y
modifications: HV.0, a designed amino acid sequence of VH of an anti-FGF-8 CDR-grafted neutralizing antibody; LV.0, a designed amino acid sequence of VL of an anti-FGF-8 CDR-grafted neutralizing antibody
B9: HV6LV6: YB2/0 cell-derived anti-FGF-8 neutralizing CDR-grafted antibody, VH HV.6 (SEQ ID NO. 20), VL LV.6 (SEQ ID NO. 21) (antibody, V domains shown)
VH: B1 VH with K12A, K13R, A40R, P41S, M48I, Y95F
VL: B1 VL with T14S, P15L, Q50K
modifications: HV.6, a designed amino acid sequence of VH of an anti-FGF-8 CDR-grafted neutralizing antibody; LV.6, a designed amino acid sequence of VL of an anti-FGF-8 CDR-grafted neutralizing antibody

The molecules below were run against T1, FGF-8 (assay: FGF-8 neutralizing activity: FGF-8-dependent growth of mouse breast cancer cell line SC-3). Details: SC-3 cells, FGF-8 50 ng/mL, WST-1.
Assay type: cell-based
Protocol: The FGF-8 neutralizing activity of the purified anti-FGF-8 neutralizing chimeric antibody was evaluated by measured the following FGF-8-dependent growth inhibitory effect of mouse breast cancer cell line SC-3 (Tanaka A. et al., Proc. Natl. Acad. Sci. USA, 89, 8928-8932, 1992) described below. That is, SC-3 cells were suspended at a concentration of 3.0×10^4 cells/mL in DMEM:Ham's F12 (1:1) medium [a mixed medium of DMEM medium and Ham's F12 medium (manufactured by Invitrogen) at a ratio of 1:1] containing activated charcoal-treated FBS at a concentration of 2%. The suspension was inoculated on a 96-well plate in an amount of 150 μL (4.5×10^3 cells)/well. After the culturing in a 5% CO2 incubator at 37° C. for 18 hours, the medium was replaced with 100 μL/well of a test medium. The test medium was produced by dissolving 50 ng/mL of FGF-8 (manufactured by R & D) and the anti-FGF-8 neutralizing chimeric antibody at each dilute concentration in DMEM:Ham's F12 (1:1) medium containing 0.1% BSA. The chimeric antibody KM2760 to human chemokine CCR4 described in WO 01/64754 was used as an antibody of a negative control. After the culturing in a 5% CO2 incubator at 37° C. for 48 hours, the medium was replaced with a freshly prepared test medium, and the culturing was further performed for 48 hours. WST-1 Reagent (manufactured by Roche) was added in an amount of 10 μL/well, and the mixture was culturing in a 5% CO2 incubator at 37° C. for 1 hour while being gently stirred. Then, absorbance (OD450,650) was measured. In FIG. 21, the abscissa represents a concentration of an antibody added, and the ordinate represents relative growth (%) to growth when adding 50 ng/mL of FGF-8 alone. The relative growth (%) to growth when adding 50 ng/mL of FGF-8 alone was calculated by the following formula. Relative growth (%) to growth when adding FGF-8={(Absorbance when adding FGF-8 and antibody−Absorbance when not adding FGF-8 and antibody)/(Absorbance when adding FGF-8 alone−Absorbance when not adding FGF-8 and antibody)}×100

Molecule | FGF-8 neutralizing activity (SC-3 cell growth inhibitory activity)
B1 | the next high FGF-8 neutralizing activity
B2 | slightly lower FGF-8 neutralizing activity than the HV0LV3-1/CHO
B3 | the lowest neutralizing activity
B4 | approximately half that of the chimeric antibody KM3034
B5 | approximately half that of the chimeric antibody KM3034

These molecules were tested against T1, FGF-8 (assay: FGF-8 binding activity by BIAcore 2000, immobilized FGF-8). Details: antibody 50 μg/mL; FGF-8 immobilized 4498 RU.
Protocol: In order to examine the FGF-8 binding activity of the various anti-FGF-8 neutralizing CDR-grafted antibodies obtained in 4. of Reference Example 2 in more detail, the FGF-8 binding activity of the various anti-FGF-8 neutralizing CDR-grafted antibodies was measured and compared in the following manner using BIAcore2000 (manufactured by BIACORE). The YB2/0 cell-derived anti-FGF-8 neutralizing chimeric antibody KM3334 obtained in 3.(2) of Reference Example 1 was used as a positive control.
HBS-EP (manufactured by BIACORE) was used hereinafter as a sample diluent and a buffer during measurement. First, Sensor Chip CM5 (manufactured by BIACORE) was installed, and FGF-8 (manufactured by R & D) dissolved in 31.25 μg/mL of 10 mmol/L acetate buffer solution (pH 4.0) was immobilized on the surface of the sensor chip by the amine coupling method. The immobilization amount measured by using a resonance signal (RU) as an index was 4498 RU.
60 μL of each of the antibody solutions was added to an FGF-8 immobilized flow cell at a flow rate of 20 μL/min, and the dissociation reaction was then monitored for 3 minutes. After the dissociation reaction, 20 μL of a 10 mmol/L glycine-hydrochloride solution (pH 1.5) was added to the flow cell twice continuously to regenerate the surface of the chip. This cycle was performed with the antibody solution at various concentrations (from 50 to 0.068 μg/mL) to obtain sensor grams at various concentrations. The sensor grams of the respective antibodies were converted to sensor grams of specific reactions by deducing a sensor gram obtained using chimeric antibody KM871 (Shitara K. et al., Cancer Immunol. Immunother., 36, 373-380, 1993) to GD3 as a negative control. […] Accordingly, the binding activity of the various antibodies was compared in terms of the binding [resonance signal (RU)] in the binding reaction. […] The effect of restoring the binding activity was not observed in the 6 amino acid residues of FR of VH.

Molecule | binding reaction [resonance signal (RU)]
B6 | the highest binding reaction
B7 | the same high binding reaction as KM3334
B8 | slightly low in comparison to KM3334 and HV0LV6
B9 | slightly low in comparison to KM3334 and HV0LV6

These molecules were tested against T2, compound 1 as a partial peptide of FGF-8 (assay: FGF-8 binding activity by BIAcore 2000, immobilized biotin-labeled compound 1). Details: antibody 16.7 μg/mL; FGF-8 peptide immobilized 35 RU.
Protocol: In order to examine the FGF-8 binding activity of the anti-FGF-8 neutralizing CDR-grafted antibodies obtained in 5. of Reference Example 3, the FGF-8 binding activity of the various anti-FGF-8 neutralizing CDR-grafted antibodies was measured and compared through BIAcore 2000 using compound 1 as a partial peptide of FGF-8 with the C terminal labeled with biotin in the following manner. The anti-FGF-8 neutralizing chimeric antibody KM3034 derived from CHO/DG44 cells obtained in 3. (1) of Reference Example 1 was used as a positive control.
HBS-EP was used as a sample diluent and a buffer during measurement. First, Sensor Chip SA (manufactured by BIACORE) was installed, and 5 μL of compound 1 labeled with biotin which had been adjusted to 0.05 μg/mL was added at a flow rate of 5 μL/min. Then, 5 μL of a 10 mmol/L glycine-hydrochloride solution (pH 1.5) was added twice continuously to wash the tip surface. The immobilization amount of the FGF-8 peptide was 35 RU.
60 μL of each of the antibody solutions was added to an FGF-8 peptide immobilized flow cell at a flow rate of 20 μL/min, and the dissociation reaction was then monitored for 3 minutes. After the dissociation reaction, 20 μL of 10 mmol/L glycine-hydrochloride solution (pH 1.5) was added twice continuously to regenerate the chip surface. This cycle was performed on the antibody solution at various concentrations (from 50 to 1.85 μg/mL) to obtain sensor grams at various concentrations. The sensor grams of the respective antibodies were converted to sensor grams of specific reactions by deduceing a sensor gram obtained using the chimeric antibody KM871 to GD3 as a negative control.

Molecule | binding reaction [resonance signal (RU)]
B1 | the higher binding reaction
B2 | the higher binding reaction
B3 | the higher binding reaction
B4 | the higher binding reaction than that of the HV0LV3-1/CHO and similar to that of the HV0LV6/CHO
B5 | lower than that of the HV0LV3-1
